Data taken from the supplement of paper PMC9732359.
± gives the uncertainty stated by the source.

Assay: protein stability index of a GFP-peptide fusion (yeast GPS) (PSI 1-4); higher = more stable; sorted into four equal gates, so the index is relative within each strain
Method in brief: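 Plasmids in a pooled yeast library fused tiled 17-residue yeast protein peptides downstream of GFP and also expressed Cherry. Mid-log cultures grown without leucine were sorted into four equal gates by GFP/Cherry fluorescence ratio. Each gate's plasmids were PCR-amplified and Illumina-sequenced, and reads were matched to strains by barcodes. The protein stability index is derived by multiplying each gate's read frequency by its gate number and summing the results.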

Sequence | protein stability index (doa10∆) | protein stability index (pdr5∆) | protein stability index (san1∆) | protein stability index (ubr1∆)
SELLGGTFKSTLDREYI [QCR2] | 3.15 ± 0.093 | 3.17 ± 0.11 | 2.87 ± 0.089 | 3.1 ± 0.05
SERIVDCIIRLPVKWET [FAS1] | 2.3 ± 0.089 | 1.97 ± 0.083 | 1.75 ± 0.12 | 2.62 ± 0.056
SETADETLENNIVSVLT [RPN11] | 2.73 ± 0.11 | 2.94 ± 0.076 | 2.75 ± 0.11 | 2.78 ± 0.097
SETQTKDENNTANDQYS [YCG1] | 2.89 ± 0.069 | 3.15 ± 0.056 | 2.84 ± 0.041 | 3 ± 0.044
SEYMVFGKLAFPTRLGQ [YJL039C/NUP192] | 3.01 ± 0.073 | 2.52 ± 0.062 | 2.75 ± 0.067 | 2.15 ± 0.059
SFEKLYEGMKLGNHAIT [YMR129W/POM152] | 2.85 ± 0.17 | 1.47 ± 0.27 | 1.85 ± 0.24 | 2 ± 0.15
SFFSGLSPPEFLFHAIS [RPO31] | 2.07 ± 0.044 | 1.9 ± 0.05 | 1.93 ± 0.11 | 1.91 ± 0.041
SFFVSVRKAITVLFFIG [FAS1] | 1.48 ± 0.087 | 1.34 ± 0.11 |  | 1.09 ± 0.041
SFIINFISNLPNVSDKY [NUT1] | 2.28 ± 0.08 | 1.91 ± 0.07 | 2.06 ± 0.15 | 1.95 ± 0.057
SFNCENFFQAPQDYVLE [YML031W/NDC1] | 3.07 ± 0.079 | 3.06 ± 0.082 | 3.09 ± 0.07 | 3.11 ± 0.067
SFNVKENQPFHGIKDIP [AAR2] | 2.73 ± 0.16 | 3.17 ± 0.19 | 2.98 ± 0.11 | 2.34 ± 0.21
SFQLSKIRRAARDLLTR [RPS9A] | 2.06 ± 0.044 | 2.24 ± 0.044 | 2.21 ± 0.045 | 1.98 ± 0.032
SFSFSIPSKNTPDASKP [YLR335W/NUP2] | 2.42 ± 0.04 | 2.45 ± 0.042 | 2.28 ± 0.045 | 2.5 ± 0.037
SFTFASSKTSQPKPLFS [YOR098C/NUP1] | 2.37 ± 0.042 | 2.44 ± 0.035 | 2.27 ± 0.046 | 2.69 ± 0.029
SFTPSTVPNINFSGLNG [YOR098C/NUP1] | 2.59 ± 0.066 | 2.68 ± 0.068 | 2.83 ± 0.056 | 2.97 ± 0.05
SFVLNKNTIDFERFPSP [RPN4] | 2.4 ± 0.059 | 2.66 ± 0.058 | 2.84 ± 0.057 | 2.88 ± 0.052
SGAYSYPDFRHYGLAVD [DIS3] | 1.82 ± 0.047 | 2.56 ± 0.056 | 2.42 ± 0.089 | 2.67 ± 0.043
SGDRLTRASKVLEQLSG [RPL11A] |  | 3.12 ± 0.13 | 2.43 ± 0.27 | 2.92 ± 0.13
SGEEKGKKVSGFKDEVL [RPS1B] | 3.4 ± 0.11 | 3.61 ± 0.14 | 3.48 ± 0.11 | 3.46 ± 0.083
SGFYTFSLLDHHYRPDM [PRE1] |  | 3.1 ± 0.28 | 2.99 ± 0.13 | 
SGGLFGNQQQQLQQQPQ [YGL172W/NUP49] | 2.88 ± 0.13 | 2.61 ± 0.15 | 2.89 ± 0.093 | 3 ± 0.12
SGIVASPAVKKLLQLAG [RPS2] | 1.56 ± 0.12 | 1.66 ± 0.14 |  | 
SGKITDFIKFDAGKLVY [RPS4A] | 3.17 ± 0.066 | 2.92 ± 0.061 | 2.8 ± 0.06 | 3 ± 0.064
SGLMVILYTSKIVFILD [RRI2] | 1.76 ± 0.09 | 1.81 ± 0.049 | 1.44 ± 0.094 | 1.69 ± 0.037
SHAIRLGNGVACDPSEI [RGR1] | 1.52 ± 0.088 | 1.64 ± 0.089 | 2.91 ± 0.17 | 2.16 ± 0.15
SHFSPDIKAAVDDSMEL [ITC1] | 2.27 ± 0.096 | 2.44 ± 0.12 | 1.9 ± 0.15 | 2.48 ± 0.079
SIGINDVTPADDLKQKK [RPO31] | 2.99 ± 0.25 |  |  | 

Sequence | protein stability index (doa10∆) | protein stability index (pdr5∆) | protein stability index (san1∆) | protein stability index (ubr1∆)
SIKNNVAMCFVINKLDR [SNU114] | 1.9 ± 0.14 | 1.91 ± 0.12 |  | 
SIKSQKEEISDQKPIEH [SWI3] | 2.88 ± 0.059 | 2.98 ± 0.055 | 2.84 ± 0.048 | 2.96 ± 0.045
SILESSMFLRIDYSNSQ [RGR1] | 2.42 ± 0.083 | 2.14 ± 0.064 | 1.59 ± 0.095 | 2.41 ± 0.063
SILKRHSFAVLLHERKL [NUT1] | 2.19 ± 0.12 | 2.13 ± 0.078 | 2.26 ± 0.18 | 2.45 ± 0.1
SISGFKEALLGQLLKDH [ARP9] | 2.01 ± 0.19 | 2.29 ± 0.092 | 1.89 ± 0.08 | 2.26 ± 0.068
SISSVVSEDLLDERGHE [RPN4] | 3.11 ± 0.1 | 2.99 ± 0.096 | 2.85 ± 0.056 | 2.79 ± 0.057
SITLQGDVYDPEGTLSG [SMC2] | 2.76 ± 0.16 | 2.6 ± 0.13 |  | 2.28 ± 0.12
SIVNICDIQEEQVDITA [PUP1] | 2.83 ± 0.15 | 2.91 ± 0.16 | 3.31 ± 0.12 | 2.74 ± 0.11
SKDEPVSKAVESKSLLN [SIR4] | 2.39 ± 0.097 | 2.82 ± 0.091 | 1.37 ± 0.12 | 1.86 ± 0.097
SKESWRYDWYQPSKVSS [RTT102] | 2.09 ± 0.097 | 2.33 ± 0.098 | 1.94 ± 0.074 | 1.96 ± 0.036
SKFTKIPPTFDKGAVGP [MED4] | 3.17 ± 0.072 | 3.29 ± 0.079 | 3.33 ± 0.076 | 3.08 ± 0.11
SKGYPIQFLTIGAGVPS [FAS1] | 1.4 ± 0.032 | 1.64 ± 0.045 | 1.34 ± 0.061 | 1.34 ± 0.036
SKIRKIHIQETQEFSKN [SIR3] | 3.45 ± 0.11 | 3.08 ± 0.15 |  | 3.36 ± 0.084
SKKAEKTGTKPAAVFTE [RPL4A] | 2.52 ± 0.068 | 2.79 ± 0.085 | 2.44 ± 0.072 | 2.76 ± 0.061
SKKDFKIIDNPKSFLKK [YMR129W/POM152] | 3.05 ± 0.082 | 3.35 ± 0.095 | 3.08 ± 0.07 | 3.17 ± 0.092
SKKKKNIKKKDTKDALS [RPC53] | 3.3 ± 0.17 | 3.5 ± 0.14 | 3.21 ± 0.089 | 3.3 ± 0.21
SKKRFAAIWTLCKTKMV [RPO21] | 1.75 ± 0.048 | 1.53 ± 0.049 | 1.24 ± 0.099 | 1.57 ± 0.032
SKKRKLNSLTNLLSKRN [SNM1] | 2.87 ± 0.071 | 2.99 ± 0.059 | 2.84 ± 0.055 | 2.81 ± 0.057
SKKVLECLPAEGHDWKA [DIS3] | 1.65 ± 0.13 | 1.69 ± 0.13 | 1.47 ± 0.1 | 1.55 ± 0.07
SKKYQLADWRIRPLSKP [RRP6] | 1.68 ± 0.048 | 1.83 ± 0.048 | 1.3 ± 0.088 | 1.99 ± 0.049
SKLAEEKIRAAGGVVEL [RPL28] | 2.85 ± 0.04 | 3.08 ± 0.034 | 3.09 ± 0.037 | 2.943 ± 0.025
SKNPLSLTEATKTNVDN [YLR335W/NUP2] | 3.01 ± 0.065 | 3.01 ± 0.069 | 3.28 ± 0.11 | 3.31 ± 0.092
SKRVYKILSPTMYMEVY [CDC53] | 2.29 ± 0.075 | 2.68 ± 0.098 | 2.15 ± 0.076 | 2.63 ± 0.092
SKSAFSFGSKPTGKEEG [YJL041W/NSP1] | 3.26 ± 0.058 | 3.34 ± 0.052 | 3.36 ± 0.069 | 3.16 ± 0.067
SKSDSDSEERDPKLEKC [ITC1] | 3 ± 0.14 | 2.97 ± 0.13 | 2.62 ± 0.11 | 1.84 ± 0.058
SKSGRIFALVFSSNERY [RPN13] | 2.45 ± 0.1 | 2.74 ± 0.086 | 2.28 ± 0.11 | 2.62 ± 0.049
SKTDNIEDPNLSSNITF [YMR153W/NUP53] | 2.84 ± 0.084 | 2.81 ± 0.08 | 3 ± 0.064 | 3.27 ± 0.073
